Data published in a protein production outcome set (Wang et al. 2014).

Experiment: label from the status in PepcDB records
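Further: failed if final PepcDB status was selected cloned or expressed and not failed if soluble or beyond.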

| Sequence | protein production |
| --- | --- |
| MTSKKNSDVIYKSSSNILNEMRAGLIKGAGQDMERIKKRPLIAIANSHSELTTGHAHLAGLGAKVKQGIIAAGGEFAEFNVPAPCDGIAMAHDGMRYVLAQRDLIADIVETHVRSQAFDAVVFIAGCDKINPGMMMAMGRLDLPSLFLAGGPGQMNIRNTPTFNGNIDHGNYFNSPLEFKETFNCASCGACEFMGTANTFQCLAEALGICLPGSANIPAWHSDKLAAARATGEHIVHLFKEGITARQIMTKEAFNNALVMNMAIGGSTNAALHLPAIAHSAGIEMDIKAFETVDHIPTLLAISPNGPYGVQDLWAAGGMPAVMKVMQSDLDTSCLTVTGLPLQATIDNATILNPKVIPERSKPNRQEPGITVLRGNLAPEGCVIKQAGVKPELMYTSGPAICFDSEDDAINMIQDGKLKEGQVIVLRYMGPKGAPGMPEMLGATLALKVAGLSSASLITDGRFSGATSGPCVGHITPEASNGGFIAFIEDGDIITVDIKNRSIHCDVSDEEIEKRKQNWAPTIKPVAFGFMERYRKHVKTASEGAILD | failed |
| MSLAHKFDPSKIKKLDDPSRLELFDPEKVLKEFGLKEGMTVLDVGTGAGFYLPYLSKMVGEKGKVYAIDVQEEMVNYAWEKVNKLGLKNVEVLKSEENKIPLPDNTVDFIFMAFTFHELSEPLKFLEELKRVAKPFAYLAIIDWKKEERDKGPPPEEVYSEWEVGLILEDAGIRVGRVVEVGKYCFGVYAMIVKQEEENPLMNVPFKIPPGEGHHHHHH | not failed |
| MAGGHCGSFAAAAASSGEIVQLNVGGTRFSTSRQTLMWIPDSFFSSLLSGRISTLRDETGAIFIDRDPAAFAPILNFLRTKELDLRGVSINVLRHEAEFYGITPLVRRLLLCEELERSSCGSVLFHGYLPPPGIPSRKGTNTARSSVDARNGLSSMEGEARGSGTQPVLAGNGEDTIRLVDKLSVESWPVGVPVDPRKVLIVAGHHNWIVAAYAHFAVCYRIKESSGWQQVFTSPYLDWTIERVALNAKVVGGPHGDKDKMVAVASESSIILWSVQDGGSGSEIGVFSLGVPVDALFFIGNQLVATSHTGKVGVWNAVTQHWQVQDVVPITSYDTAGSFLLLGCNNGSIYYIDMQKFPLRMKDNDLLVTELYHDPSNDAITALSVYLTPKTSVSGNWIEIAYGTSSGAVRVIVQHPETVGSGPQLFQTFTVHRSPVTKIMLSEKHLVSVCADNNHVRTWTVTRFRGMISTQPGSTPLASFKILSLKRQRATAAIPLEMTSGLLENEMINKCLSRRLFPSPTSCLSGCHRLEKGYVRSRLWTALQSPRSLXESARAPAGWAPGQGATCSLATPTAASRCGTXPQPWTWSTRARTRTQAAPLRKSCSSCWTSVIXARPAAPRPTSALPPLCSSTAAFVSPAPAFSSSTTKPSMKQQPMVPRGLTERALCXPEQGGLRASTATGTCRLSISTELXRELSLRMVTRAQPRLRQKGQQQGSVLCVRGSPRGQREDVXGSPMWAXTCTDQRKVCQSPRKGQQRMKMSPKWSSGRKDSKQGDSLEERKFPIWHPHQVPLMEGPTPLVQHPRLQLRPLRHLGTERATPLARSTAC | failed |
| MMKRHNILTVLAVLLLTFAACDKNSAPGFSFTTDSILTLTFDKELDAAFVGVGTQNYNPVGMRRSGDTLFIANRAEGSDGVWVVRASTGELLYSLTGWTYNGKNEKFDNQVMDVAVSSDYIFVVNRSSRIDLFRRNDYSYVTTIGRTGWQSSSLLQCEAAEVAGDKLFIRDKQKIKVVQISDCTPENRFKVPVFAQNTDSTSSNNGFNLESVARHEGLIYVSDYETSRILVIDPATVAVKGEPVRFLRSYRMPNKPLSMGFFQNEMYVVCANNCIVRVDLRTGKELGSYSSFAGGVGLGTPGRLLFHNDTFYLAGRNANAPRLIQGKVMFVEISELD | failed |
| MRGLAACYSEHAIKVSDTYCSGPSNHSYISPTLPPSIPDTVTTTYRSNLPSSDKPVSVSLTWSDNLTVVISTPPKSYSVSLRKPKGSRKLTSSSGSLNAEILWDLSEAEYENNGPEPIRRFFVVVVVNSEITLGVGDVDHERDTSSSSSWRVSKTERFSGTCWLTTKAQFSDVGRKHEIQIQCGGGGGGGGEEGYLWKVKSPETMSVYVDKRKVFSVKKLKWNFRGNQTMFFDGMLIDMMWDLHDWFYKETLSSVSTSSSSKTASSSSSSSTSSSTPPCAVFMFRRRSGLDSRLWIDEDEQESEMKKNIGSRDEKHSFSLIICASKK | failed |
| MTTTPTTPATPTTPNAPTPDVTITVIVYNDAERLPRAVASLLRQTHPAIEIIISDDHSTDATPSVARELEASDPRIRYLRLPENSGGCSAPRNRALEIARAPYLMFLDSDDELPENAVALLLAAHREREVDFAMGAVERIRVDTGHRSTWMAHLVDERRTVDGIEAEPGLLFEHLATSKMYTRDFLDRHALRFPEGIHYEDQLFSAQAYCLAKSFTVIPQPVYRWYIAPYVAQDAASISNQRHKLSNVSDRIHVQTLIDDFLAESGHESLRQDKDYKFLKHDFRMYAGDLPYRDEDWLTGFARIVTPYLETLSPGAYALLPRAERVVLQLVRDGRLSEAQLAARGLGHSVAPRETTADDSGCLYWGPRLPSSDWARRELDVTELGLDSRPFPSAQFRHEITSVTPGRGMTVDLTIRTYDPGLRLPVGPQRASVVVAPGRRRLMVPFRLDPVRPGVFEGRVRVDLAAAPLPVQGFDGVRHPLLRLEQQGLANTGVLLAPLTFPTLRATRPGSLRHEVTVEPEGKAAGRLQIRWRPVGVTARVAGPVARKVAGPRVRRAARLVRSALR | failed |
| MNKRPARPTRSRRRISVAPATRQLRNARQMMADDIAVARAVERGELETEEHPTHGATNAEKAAESGLQPQPSDHEKAEVATSKHGLPKLTIVLLTVAAAWLGLSFLHELSSVVAPLFFGLNLLITAYPIHTWLVKHKCPRWISATTAGTAVIVVLAAGVVGMVWSVAAMINQLQSYIPQMEKIYTQLLHWSTQLGYSQDVIADKLKKIDPQQVMSVVTSVASDTTSVVTMIIVILTGMIFMVMDTPQMHDRLRMAGSRKPDVVLALESFASGIRKYWLVTTVFGLIVALFDWAALLIIGVPLAGVWALFSFLTNYIPNIGFIIGVIPPALLALFKDGWVAAVAVVVSYSVLNFVIQSIIQPKFAGDAVGLTPTMSFVSLLLWGWVFGALGTLIALPCSLLVKATLIDHDPGARWVNALISSRPTEGLEDNPDE | failed |
| MRPVLVLLHRYVGLATALFLFLAGLTGSLLAFHHEIDEWLNPGFYAVGEGGERLSPGSLVQRVESRYPRQLVWYMEYPEAGGHPALLATVPREAGAKVEHDVFYLDPVSGEEVGKRLWAACCFQPANLVPWVLEFHHNLTLPGNWGLYLMGGVAMFWFLDCFVGAWLTLPRGRPFWSKWTTAWKIKRGNAYRFNFDLHRAGGLWLWLLLAPVALSSVALNLPSQVFKPLVSLFSPIEPSVYEARGRLPREQLGETRLDYDRTFQLASVEAARLGIAEPIGELYYSFEYNFFGAGFGDHDDPMGKSWLFFHGSDGRLLGQEVAGQGSWGERFYRLQYPIHGGRIAGLPGRIAIAALGLAIAGLSLTGVYIWWRKRRARHWNGR | failed |
| MSLKIKHEHIRMAMNAWAHPDGEKVPAAEITRAYFELGMTFPELYDDSHPEALARNTQKIFRWVEKDTPDAVEKIQALLPAIEKSMPPLLVARMRSHSSAYFRELVETRERLVRDADDFVAVAIAGFNQMNRGGPAGNIVAVHEGHHHHHH | not failed |
| MLLFTPGPVAINEEMRTSFSQPMPHHRTKDFEKIFQSVRENLKKMTGLEEVLLLSSSGTGAMEASVISLCQKELLFVNAGKFGERFGKIAKAHSIKAHELVYEWDTPAQVDEILSVLKANPNIDAFCIQACESSGGLRHPVEKIAQAIKETNPNVFVIVDAITALGVEPLEITHVDALIGGSQKAFMLPPAMSLVALSQNAIERIEERNVGFYFNLKSELKNQRNNTTSYTAPILHTLGLQRYFELVQNLGGFEALYRETKKAALATQKAVLALGLKIFPKSPSLSMTTIVNEHAKELRNLLKEKYQVQFAGGQEPYKDALIRINHMGIIPVYKSAYALNALELALNDLDLREFDGVANATFLKQYYGI | failed |
| MDQKELQVRKEIQELSFLIFTEPNNYKHYYERGILYGGEHIKSTECRESDYHGDYSQAIEDFDKVIELQPNFANAYYHKACIYFDLGIDDDEAESLLEKALALEPNNSAYTIKYAEVITYHGENGDIAAELLEKVLVQDYSADNCILSAGYLLQYASYDFLIGNDVQALQTYQKAMKRLQHAVEKDHECLEYATNMWSDFAEGCGYDHESIKNGSSLLLPQISVWM | failed |
| MSSERDLVNFLGDFSMDVAKAVIAGGVATAIGSLASFACVSFGFPVILVGGAILLTGIVCTVVLNEIDAQCHLSEKLKYAIRDGLKRQQELDKWKRENMTPFMYVLNTPPVI | failed |
| TVGILWVNWDSHVRYANRAAEEMLGYPAGGVIDRPLIDFEPNLHMDRWLNLWKRARASEEGVQSFETQCVRADGSILPADVSLSFLRFRDSEYLVVYLNDV | failed |
